Test results reported in patent US20220041744A1 (INNATE PHARMA, published 2022).
Numbering of substitutions follows the chain as printed.

B1: H1L0 (antibody, human IgG1, V domains shown)
VH: QIQLVQSGAEVKKPGASVKVSCKASGYTFTSYNMYWVRQAPGQRLEWMGYIDPYNGGSSYNLTFKGRVTITRDKSASTAYMELSSLRSEDTAVYYCARGYGNYKAWFAYWGQGTLVTVSS
VL: DIQMTQSPSSLSASVGDRVTITCKASQSVSNDVAWYQQKPGKAPKLLIYYASTRYTGVPSRFSGSGSGTDFTFTISSLQPEDIATYYCQQDYSSLTFGQGTKLEIK
notes: L0 VL limits counted by alignment with L1
B2: H1L1 (antibody, human IgG1, V domains shown)
VH: B1 VH
VL: B1 VL with S67Y
B3: H1L2 (antibody, human IgG1, V domains shown)
VH: B1 VH
VL: B1 VL with S60D, S67Y
B4: H2L1 (antibody, human IgG1, V domains shown)
VH: B1 VH with T28A, R44S, R72V
VL: B1 VL with S67Y
B5: H3L0 (antibody, human IgG1, V domains shown)
VH: B1 VH with T28A, R44S, M48I, R67K, V68A, R72V
VL: B1 VL
notes: as for B1
B6: H3L1 (antibody, human IgG1, V domains shown)
VH: B1 VH with T28A, R44S, M48I, R67K, V68A, R72V
VL: B1 VL with S67Y
B7: H2L0 (antibody, human IgG1, V domains shown)
VH: B1 VH with T28A, R44S, R72V
VL: B1 VL
notes: as for B1
B8: H4L1 (antibody, human IgG1, V domains shown)
VH: B1 VH with T28A, T30A, R44S, M48I, R67K, V68A, I70L, R72V
VL: B1 VL with S67Y
B9: chimeric parental 3C12 antibody (antibody, human IgG1, V domains shown)
VH: QIQLQQSGPELVKPGASVKVSCKASGYAFASYNMNWVKQSHGKSLDWIGYIDPYNGGSSYNLTFKGKATLTVDKSSTTAYMHLNSLTSEDSAVYYCARGYGNYKAWFAYWGQGTLVTVSA
VL: DVVMTQTPKFLLVSAGDRVTITCKASQSVSNDVAWYQQKPGQSPKLLIYYASTRYTGVPDRFTGSGYGTDFTFTISTVQAEDLAVYFCQQDYSSLTFGAGTKLELK
notes: also called HPLP; parental antibody 3C12

Experiments:
[1] = biological target: T1, human CD73 expressed at the surface of cells (human, UniProt P21589 27-549); test: flow cytometry titration on transfected cells expressing human CD73, PE goat anti-human IgG (H+L) detection, MFI
T1 construct: T cells in the proliferation assays; also called huCD73; CD73-expressing cells
T1 sequence: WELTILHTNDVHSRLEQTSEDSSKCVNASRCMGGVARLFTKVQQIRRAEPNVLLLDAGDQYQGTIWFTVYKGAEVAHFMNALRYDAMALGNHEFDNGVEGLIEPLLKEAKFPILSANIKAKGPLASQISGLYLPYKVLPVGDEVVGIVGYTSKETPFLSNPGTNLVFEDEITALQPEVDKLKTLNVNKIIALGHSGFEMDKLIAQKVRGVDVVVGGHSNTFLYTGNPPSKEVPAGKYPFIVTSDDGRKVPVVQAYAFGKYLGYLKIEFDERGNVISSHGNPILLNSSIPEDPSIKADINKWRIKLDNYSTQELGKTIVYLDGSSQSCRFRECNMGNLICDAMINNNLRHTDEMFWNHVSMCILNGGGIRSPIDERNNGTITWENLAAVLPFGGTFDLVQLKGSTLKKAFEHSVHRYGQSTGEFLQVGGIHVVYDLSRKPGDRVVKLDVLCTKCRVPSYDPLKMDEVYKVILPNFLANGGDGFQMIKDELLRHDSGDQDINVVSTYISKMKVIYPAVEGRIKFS

[2] = biological target: T2, human recombinant soluble CD73 protein (human, UniProt P21589 27-547); test: SPR, Ab captured on Protein A, soluble huCD73 as analyte
T2 construct: also called huCD73; rhCD73
T2 sequence: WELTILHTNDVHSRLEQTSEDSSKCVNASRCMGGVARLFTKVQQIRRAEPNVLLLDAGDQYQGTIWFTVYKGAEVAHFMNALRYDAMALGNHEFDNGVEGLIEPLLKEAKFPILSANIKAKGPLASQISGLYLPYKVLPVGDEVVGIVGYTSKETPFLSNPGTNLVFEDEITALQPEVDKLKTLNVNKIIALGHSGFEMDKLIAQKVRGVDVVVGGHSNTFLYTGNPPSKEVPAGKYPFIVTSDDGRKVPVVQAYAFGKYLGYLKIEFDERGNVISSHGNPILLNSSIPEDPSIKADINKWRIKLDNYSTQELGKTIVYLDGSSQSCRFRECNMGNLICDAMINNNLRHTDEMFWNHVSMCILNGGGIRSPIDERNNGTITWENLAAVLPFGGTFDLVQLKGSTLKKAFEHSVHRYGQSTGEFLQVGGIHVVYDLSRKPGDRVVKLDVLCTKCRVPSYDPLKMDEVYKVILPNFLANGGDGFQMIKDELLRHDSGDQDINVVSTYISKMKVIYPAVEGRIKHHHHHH
Method: SPR measurements were performed on a Biacore™ T200 apparatus at 25° C. Protein-A (GE Healthcare) was immobilized on a Sensor Chip CM5 (GE Healthcare). […] The entire sensorgram sets were fitted using the 1:1 kinetic binding model. Bivalent affinities and kinetic association and dissociation rate constants are calculated.
The binding of the antibodies in Table 2 of Example 1 were tested for binding to human soluble dimeric CD73 proteins and were cloned, produced and purified. Affinity and association and dissociation constants of humanized variants were assessed by SPR analysis.

[3] = biological target: T3, cynomolgus CD73 expressed on transfected cells (cynomolgus monkey (Macaca fascicularis)); test: flow cytometry titration on transfected cells expressing cynomolgus CD73, PE goat anti-human IgG (H+L) detection, MFI
T3 construct: cell-surface expressed on a transfected cell line; Same protein as m38, which is the recombinant soluble form; It is kept apart from m38 as the first reading kept m36 and m37 apart for human CD73; also called cynomolgus CD73 protein (cell surface); cyCD73

Binder	EC50 (read off the curve) [1]	Kd [2]	koff [2]	kon [2]	EC50 (read off the curve) [3]
B1	~0.2 µg/mL	28.7 nM	0.00296 s⁻¹	103000 M⁻¹ s⁻¹	
B2		0.8 nM	8.43e-05 s⁻¹	100000 M⁻¹ s⁻¹	~0.2 µg/mL
B3		0.6 nM	8.38e-05 s⁻¹	135000 M⁻¹ s⁻¹	~0.2 µg/mL
B4	~0.1 µg/mL	1.4 nM	0.000118 s⁻¹	83700 M⁻¹ s⁻¹	
B5	~0.2 µg/mL	29.4 nM	0.00797 s⁻¹	271000 M⁻¹ s⁻¹	~0.2 µg/mL
B6	~0.3 µg/mL	1.8 nM	0.00014 s⁻¹	78900 M⁻¹ s⁻¹	
B7	~0.2 µg/mL				~0.2 µg/mL
B8		1.7 nM	0.000179 s⁻¹	106000 M⁻¹ s⁻¹	~0.2 µg/mL
B9		0.68 nM			~0.2 µg/mL
